Reference: article PMC13397619

B1: NLV2 TCR alpha chain (CDR3α only) (parent)
chain: AGPMKTSYDKVI
partner: MLVPMVATV

Variants of: B1
Assay: T-Switch: Jurkat TCRβ−/− cells expressing a CDR3 saturation-mutagenesis library, stained with two peptide-HLA-A*02:01 tetramers (original and novel peptide) plus anti-CD3, FACS-sorted into four gates, gDNA sequenced
Settings: with HLA-A*02:01 with peptide … (NLV 3-1, the novel peptide), tetramers 1 µg/mL, 30 min on ice, SP, DP and SW gates expanded about 10 days between rounds ('two to three rounds of selection' in the Methods), gate SW: higher = more of the variant in the gate that binds the novel peptide and not the original one = switched binding. Fold enrichment of the CDR3 variant in one FACS gate of a two-tetramer stain, unresolved parent, parent is a CDR3 fragment, scale: fold enrichment, numbering: sequential-on-construct, sequence starts at 1
[…] (CDR3 as printed); M4G derived by comparing it with the table's wild-type CDR3 AGPMKTSYDKVI was tested, and the enrichment was 0.
Work on […] (CDR3 as printed); M4H derived by comparing it with the table's wild-type CDR3 AGPMKTSYDKVI yielded an enrichment of 0.
Variant […] (CDR3 as printed); M4I derived by comparing it with the table's wild-type CDR3 AGPMKTSYDKVI has an enrichment of 0.
In the case of […] (CDR3 as printed); M4K derived by comparing it with the table's wild-type CDR3 AGPMKTSYDKVI, the enrichment is reported as 0.
Work on […] (CDR3 as printed); M4L derived by comparing it with the table's wild-type CDR3 AGPMKTSYDKVI yielded an enrichment of 0.
Work on […] (CDR3 as printed); M4N derived by comparing it with the table's wild-type CDR3 AGPMKTSYDKVI yielded an enrichment of 0.
Work on […] (CDR3 as printed); M4P derived by comparing it with the table's wild-type CDR3 AGPMKTSYDKVI yielded an enrichment of 0.
In the case of […] (CDR3 as printed); M4Q derived by comparing it with the table's wild-type CDR3 AGPMKTSYDKVI, the enrichment is reported as 0.
For […] (CDR3 as printed); M4R derived by comparing it with the table's wild-type CDR3 AGPMKTSYDKVI, the enrichment was 0.
Variant […] (CDR3 as printed); M4S derived by comparing it with the table's wild-type CDR3 AGPMKTSYDKVI has an enrichment of 0.
[…] (CDR3 as printed); M4T derived by comparing it with the table's wild-type CDR3 AGPMKTSYDKVI gave an enrichment of 0.
In the case of […] (CDR3 as printed); M4V derived by comparing it with the table's wild-type CDR3 AGPMKTSYDKVI, the enrichment is reported as 0.
[…] (CDR3 as printed); M4W derived by comparing it with the table's wild-type CDR3 AGPMKTSYDKVI gave an enrichment of 0.
Work on […] (CDR3 as printed); M4Y derived by comparing it with the table's wild-type CDR3 AGPMKTSYDKVI yielded an enrichment of 0.
For […] (CDR3 as printed); P3A derived by comparing it with the table's wild-type CDR3 AGPMKTSYDKVI, the enrichment was 0.
Work on […] (CDR3 as printed); P3C derived by comparing it with the table's wild-type CDR3 AGPMKTSYDKVI yielded an enrichment of 0.
For […] (CDR3 as printed); P3D derived by comparing it with the table's wild-type CDR3 AGPMKTSYDKVI, the enrichment was 0.
Work on […] (CDR3 as printed); P3E derived by comparing it with the table's wild-type CDR3 AGPMKTSYDKVI yielded an enrichment of 0.
[…] (CDR3 as printed); P3F derived by comparing it with the table's wild-type CDR3 AGPMKTSYDKVI gave an enrichment of 0.
With […] (CDR3 as printed); P3G derived by comparing it with the table's wild-type CDR3 AGPMKTSYDKVI the enrichment was 0.
For […] (CDR3 as printed); P3H derived by comparing it with the table's wild-type CDR3 AGPMKTSYDKVI, the enrichment was 0.
Work on […] (CDR3 as printed); P3I derived by comparing it with the table's wild-type CDR3 AGPMKTSYDKVI yielded an enrichment of 0.
With […] (CDR3 as printed); P3K derived by comparing it with the table's wild-type CDR3 AGPMKTSYDKVI the enrichment was 0.
[…] (CDR3 as printed); P3L derived by comparing it with the table's wild-type CDR3 AGPMKTSYDKVI was tested, and the enrichment was 0.
[…] (CDR3 as printed); P3M derived by comparing it with the table's wild-type CDR3 AGPMKTSYDKVI gave an enrichment of 0.
With […] (CDR3 as printed); P3N derived by comparing it with the table's wild-type CDR3 AGPMKTSYDKVI the enrichment was 0.
In the case of […] (CDR3 as printed); P3Q derived by comparing it with the table's wild-type CDR3 AGPMKTSYDKVI, the enrichment is reported as 0.
For […] (CDR3 as printed); P3R derived by comparing it with the table's wild-type CDR3 AGPMKTSYDKVI, the enrichment was 0.
Work on […] (CDR3 as printed); P3S derived by comparing it with the table's wild-type CDR3 AGPMKTSYDKVI yielded an enrichment of 0.
With […] (CDR3 as printed); P3T derived by comparing it with the table's wild-type CDR3 AGPMKTSYDKVI the enrichment was 0.
With […] (CDR3 as printed); P3V derived by comparing it with the table's wild-type CDR3 AGPMKTSYDKVI the enrichment was 0.657.
[…] (CDR3 as printed); P3W derived by comparing it with the table's wild-type CDR3 AGPMKTSYDKVI showed an enrichment of 0.
[…] (CDR3 as printed); P3Y derived by comparing it with the table's wild-type CDR3 AGPMKTSYDKVI was tested, and the enrichment was 0.
For […] (CDR3 as printed); S7A derived by comparing it with the table's wild-type CDR3 AGPMKTSYDKVI, the enrichment was 0.
[…] (CDR3 as printed); S7C derived by comparing it with the table's wild-type CDR3 AGPMKTSYDKVI was tested, and the enrichment was 0.
Variant […] (CDR3 as printed); S7D derived by comparing it with the table's wild-type CDR3 AGPMKTSYDKVI has an enrichment of 0.
Work on […] (CDR3 as printed); S7E derived by comparing it with the table's wild-type CDR3 AGPMKTSYDKVI yielded an enrichment of 0.
Work on […] (CDR3 as printed); S7F derived by comparing it with the table's wild-type CDR3 AGPMKTSYDKVI yielded an enrichment of 0.
With […] (CDR3 as printed); S7G derived by comparing it with the table's wild-type CDR3 AGPMKTSYDKVI the enrichment was 0.
For […] (CDR3 as printed); S7H derived by comparing it with the table's wild-type CDR3 AGPMKTSYDKVI, the enrichment was 0.
[…] (CDR3 as printed); S7I derived by comparing it with the table's wild-type CDR3 AGPMKTSYDKVI gave an enrichment of 0.
Work on […] (CDR3 as printed); S7K derived by comparing it with the table's wild-type CDR3 AGPMKTSYDKVI yielded an enrichment of 0.
Work on […] (CDR3 as printed); S7L derived by comparing it with the table's wild-type CDR3 AGPMKTSYDKVI yielded an enrichment of 0.
[…] (CDR3 as printed); S7M derived by comparing it with the table's wild-type CDR3 AGPMKTSYDKVI was tested, and the enrichment was 0.
In the case of […] (CDR3 as printed); S7N derived by comparing it with the table's wild-type CDR3 AGPMKTSYDKVI, the enrichment is reported as 0.
[…] (CDR3 as printed); S7P derived by comparing it with the table's wild-type CDR3 AGPMKTSYDKVI gave an enrichment of 0.
[…] (CDR3 as printed); S7Q derived by comparing it with the table's wild-type CDR3 AGPMKTSYDKVI was tested, and the enrichment was 0.
In the case of […] (CDR3 as printed); S7R derived by comparing it with the table's wild-type CDR3 AGPMKTSYDKVI, the enrichment is reported as 0.
[…] (CDR3 as printed); S7T derived by comparing it with the table's wild-type CDR3 AGPMKTSYDKVI showed an enrichment of 0.
With […] (CDR3 as printed); S7V derived by comparing it with the table's wild-type CDR3 AGPMKTSYDKVI the enrichment was 0.
With […] (CDR3 as printed); S7W derived by comparing it with the table's wild-type CDR3 AGPMKTSYDKVI the enrichment was 0.
For […] (CDR3 as printed); S7Y derived by comparing it with the table's wild-type CDR3 AGPMKTSYDKVI, the enrichment was 0.
Variant […] (CDR3 as printed); T6A derived by comparing it with the table's wild-type CDR3 AGPMKTSYDKVI has an enrichment of 0.
[…] (CDR3 as printed); T6C derived by comparing it with the table's wild-type CDR3 AGPMKTSYDKVI gave an enrichment of 0.
